# Experimental data: the Human Domainome abundance scans (Beltran et al. 2025)
# ± gives the uncertainty stated by the source.
# B1: Double-stranded RNA-binding protein Staufen homolog 1, residues 183 to 249; numbered along this chain, O95793 (parent)
# chain: KSEISQVFEIALKRNLPVNFEVARESGPPHMKNFVTKVSVGEFVGEGEGKSKKISKKNAAIAVLEEL
# Variants of: B1
# Assay: abundance fitness (aPCA) (normalised: wild type 0, dead -1); higher = more abundant; growth selection in yeast, the domain comes from the species named
# Settings: Homo sapiens
row,Variant,abundance fitness
1,I61R,0.002 ± 0.04
2,I61Q,-0.14 ± 0.059
3,I61V,-0.104 ± 0.054
4,I61E,-0.245 ± 0.068
5,I61D,-0.53 ± 0.097
6,I61C,-0.126 ± 0.082
7,S51I,-0.904 ± 0.18
8,S51V,-0.615 ± 0.071
9,S51M,-0.587 ± 0.095
10,S51H,-1 ± 0.26
11,S51Q,-0.445 ± 0.081
12,S51Y,-0.657 ± 0.087
13,A62E,-0.353 ± 0.058
14,A62G,-0.302 ± 0.05
15,A62F,-0.787 ± 0.23
16,A62T,-0.381 ± 0.059
17,A62S,-0.112 ± 0.05
18,A62N,0.035 ± 0.097
19,K13T,-0.246 ± 0.079
20,K13Y,-0.323 ± 0.1
21,K13C,-0.296 ± 0.084
22,K13F,-0.436 ± 0.11
23,K13G,-0.308 ± 0.043
24,K13I,-0.26 ± 0.096

row,Variant,abundance fitness
1,K13E,-0.183 ± 0.072
2,I4D,-0.388 ± 0.077
3,I4S,-0.461 ± 0.056
4,I4C,-0.417 ± 0.084
5,I4T,-0.391 ± 0.062
6,I4H,-0.447 ± 0.067
7,I4N,-0.56 ± 0.094
8,V35R,0.04 ± 0.037
9,V35G,-0.497 ± 0.034
10,V35E,-0.393 ± 0.042
11,V35N,-0.35 ± 0.11
12,V35F,0.033 ± 0.087
13,V35A,-0.256 ± 0.039
14,V35P,-0.502 ± 0.068
15,V35W,-0.186 ± 0.051
16,G41P,-0.645 ± 0.095
17,G41D,-0.761 ± 0.1
18,G41C,-0.911 ± 0.14
19,F8K,-0.135 ± 0.055
20,F8H,-0.012 ± 0.074
21,F8E,-0.268 ± 0.048
22,F8C,-0.258 ± 0.066
23,F8P,-0.457 ± 0.056
24,F8R,-0.129 ± 0.033

row,Variant,abundance fitness
1,F8M,-0.143 ± 0.058
2,V63T,-0.615 ± 0.056
3,V63S,-0.693 ± 0.053
4,V63N,-0.521 ± 0.08
5,P17A,-0.09 ± 0.051
6,P17W,-0.56 ± 0.079
7,P17E,-0.09 ± 0.055
8,P17L,-0.196 ± 0.041
9,P17K,0.031 ± 0.059
10,P17C,-0.447 ± 0.18
11,A23E,-0.102 ± 0.061
12,V44S,-0.086 ± 0.044
13,V44P,-0.789 ± 0.11
14,V44T,-0.015 ± 0.061
15,V44A,-0.18 ± 0.044
16,V22L,0.016 ± 0.043
17,V22I,-0.005 ± 0.056
18,V22C,-0.087 ± 0.072
19,V22F,-0.165 ± 0.063
20,V22D,-0.102 ± 0.069
21,V22R,0.069 ± 0.038
22,V22N,-0.114 ± 0.068
23,V22Q,-0.031 ± 0.056
24,V22T,0.034 ± 0.042

row,Variant,abundance fitness
1,S39M,-0.056 ± 0.059
2,S39Q,-0.034 ± 0.054
3,S39R,0.029 ± 0.035
4,N19R,0.077 ± 0.044
5,N19T,0.037 ± 0.052
6,N19V,-0.101 ± 0.048
7,N19K,0.082 ± 0.061
8,N19Y,-0.167 ± 0.084
9,R24G,-0.196 ± 0.037
10,R24T,-0.085 ± 0.045
11,R24L,-0.129 ± 0.035
12,R24C,-0.045 ± 0.074
13,R24V,-0.102 ± 0.036
14,R24D,-0.141 ± 0.081
15,R24Y,-0.246 ± 0.064
16,E42Q,-0.05 ± 0.05
17,E42L,-0.255 ± 0.04
18,V7R,-0.631 ± 0.039
19,V7Y,-0.782 ± 0.14
20,V7G,-0.626 ± 0.046
21,S55M,-0.931 ± 0.074
22,S55C,-0.535 ± 0.091
23,S55E,-0.662 ± 0.059
24,S55Y,-1.07 ± 0.16

row,Variant,abundance fitness
1,V40D,-0.577 ± 0.08
2,V40A,-0.501 ± 0.051
3,V40T,-0.541 ± 0.054
4,V40M,-0.312 ± 0.061
5,V40R,-0.811 ± 0.063
6,V40F,-0.564 ± 0.088
7,V40E,-0.555 ± 0.058
8,G45W,-0.582 ± 0.065
9,G45T,-0.246 ± 0.048
10,G45M,-0.585 ± 0.072
11,G45L,-0.591 ± 0.047
12,P29Y,-0.259 ± 0.073
13,P29L,-0.273 ± 0.038
14,P29I,-0.205 ± 0.081
15,I54E,0.09 ± 0.043
16,I54C,-0.26 ± 0.052
17,I54P,-0.724 ± 0.073
18,I54A,-0.063 ± 0.042
19,I54H,-0.221 ± 0.075
20,I54S,-0.066 ± 0.045
21,I54K,-0.081 ± 0.049
22,I54W,-0.619 ± 0.05
23,I54Y,-0.642 ± 0.084
24,I54F,-0.661 ± 0.12

row,Variant,abundance fitness
1,E48Q,0.054 ± 0.051
2,E48K,0.089 ± 0.06
3,K53N,-0.243 ± 0.065
4,K53W,-0.214 ± 0.053
5,K53M,-0.278 ± 0.073
6,K53Q,-0.207 ± 0.065
7,K53D,-0.192 ± 0.066
8,K53A,-0.129 ± 0.054
9,K53P,-0.284 ± 0.07
10,E9H,-0.155 ± 0.079
11,E9A,-0.057 ± 0.038
12,E9R,-0.232 ± 0.036
13,E9T,-0.197 ± 0.048
14,E9L,-0.36 ± 0.041
15,A60I,-0.452 ± 0.083
16,A60G,-0.685 ± 0.051
17,A60H,-0.803 ± 0.083
18,A60F,-0.068 ± 0.081
19,A60M,-0.363 ± 0.058
20,A60K,-0.714 ± 0.075
21,A60C,-0.067 ± 0.069
22,A60L,-0.414 ± 0.039
23,G47T,-0.868 ± 0.082
24,G47V,-0.834 ± 0.057

row,Variant,abundance fitness
1,G47I,-0.897 ± 0.15
2,P28Q,-0.202 ± 0.063
3,P28F,-0.35 ± 0.07
4,P28V,-0.278 ± 0.052
5,P28K,-0.218 ± 0.057
6,P28M,-0.303 ± 0.062
7,P28A,-0.155 ± 0.056
8,K52Y,-0.329 ± 0.078
9,K52M,-0.29 ± 0.058
10,K52Q,-0.318 ± 0.064
11,K52A,-0.125 ± 0.043
12,S2Y,-0.653 ± 0.087
13,S2V,-0.7 ± 0.11
14,S2D,-0.382 ± 0.072
15,S2G,-0.136 ± 0.052
16,S2A,-0.41 ± 0.051
17,S2T,-0.235 ± 0.052
18,G27H,-0.326 ± 0.11
19,G27I,-0.223 ± 0.12
20,G27C,-0.366 ± 0.076
21,G27Y,-0.437 ± 0.079
22,G27N,-0.307 ± 0.081
23,V38S,-0.46 ± 0.052
